For this series, the target named is FBH1 (F-box helicase 1, isoform 4);SKP1;CUL1;RBX1 (human;human;human;human, UniProt Q2TAK1;P63208;Q13616;P62877 1-969;1-163;1-776;1-108, |||). The series can be described thus: EMSA. (Mobility shift assays separate free from complexed probe on a gel.)

Here are results for 1 molecule from PMC12946210.

B1: Lag gap fork (mixed)
DNA 1: CTCAGGACTCAGTTCGTCAGCCCTTGACAGCGATGGAAGC
DNA 2: CGAAGGTAGCGACAGTTCCCCTGACGAACTGAGTCCTGAG
DNA 3: GCTTCCATCGCTCTCAAG
DNA 4: TCGCTACCTTCG
Take B1: the binding result is given as “binds”.
